Source: a protein production outcome set (Wang et al. 2014)

Assay: label from the status in PepcDB records
With “MSQYQRLLLIADPQQHQSPAARRAVALARASGAALHALVFVEPPARTYLWEEHLEDSEREAYLQRHERWLQVEAQWMAEEGVQVTTQVIWSTQVLKDMLAYIDEFRPDLLIKDVTLESALKRVFVTPLDCHLLREAPVPVHLVNDAPHKLPRRIVAAVDPAQSDTQIRGLNTQIIQTAHALALQCDAQLHLLYAYDLMPMLDGVAPVASTAWSVNCLDELRDSLHKEFERLGDEHNVPQEFRHFIMGPPVPGIAQFVDEYLVDVVVMGTVHRTGFGRLIGSTTERALYSMPGSILAVKASGAA” the protein production was “failed”. With “MSRAEKSTAEQSGHIQHGVRKAAGVVFMVFGTMCFASKSIFVKWAYEQGAQPEAVLLYRQLFAAPLFWLIFIVYRSKLPAKPEKAEIFKACAAGLLCFFLSPLLDFIGLHGVSATVERMIVMSYPMFVLIITAFVNKKMVSGKTFAAILLVNAGLFLAVGGWDVQALEANLSGAFLILLSAVAYAAYLVVAGGLVRQIGGIRMNAYGMSAASLAMAGYALLRSLREQPGIVLSYPPAMYGFFMIIAAVTTVIPFLFMLEGMKRIGAERGAVISMIGPVLTIFGGVLFLNERLTPVQWLGCLLVHLTVSLLEYRK” the protein production was “failed”. For “MSRDPILSLPWPDARPLPDTFFDRDALLVARELLGKVIRHRQGNLWLAARIIETEAYYLEEKGSHASLGYTEKRKALFLDGGHIYMYYARGGDSLNFSAGGPGNAVLIKSGHPWLDRISDHTALERMQSLNPDSQGRPREIGRLCAGQTLLCKAMGLKVPEWDAQRFDPQRLFVDDVGERPSQVIQAARLGIPKGRDEHLPYRFVDAAFAAFCTRNPLRRGQVAGRDYHLLGHQDPHLQ”, the protein production was “failed”. In the case of “MSRDTERYPVKHANSLWQIYKTVPFWKVVKNFVVIQLARYTPFVSVKNWLYRTFLKMDVGEKTAFALMVMPDIMFPERISVGRNSIIGYNTTILAHEYLIEEYRLGDVIIGDEVMVGANTTILPGVTIGDRAIIAAGTVVHKNVPPGAFVGGNPMQVIKQLEHHHHHH”, the protein production is reported as “failed”. For “MSREDELLEKLDECENATAFLQVSNKIINLKLKALLPSVFVQDDLVKEYAVDPLLREDGPLVTTDVVSKLMFAMGKISLQTYADIGLYDQVLEYVVTQPEKIAFTDDVIYDFIKNQAVLSSQQDCFYLESINQLKFSSFESFSQMRYESLIKTVLKLSCEMLIERIEEEINQ”, the protein production was “not failed”. With “MSRGLLEACIEFIRETPAGDALRIVAYEFTFKRILLELKAALERGVDVRIVYHATTANEKAIADAKLPENSKGVQILFKRTRPQTPHNKFIVRLKKGKTPVSVWTGSTNFTPSGFLGQTNVGHKVTDGDIAKIYLQLWEGLKADPDDFDATQLEHHHHHH” the protein production was “not failed”. With “MSRKVILTCAVTGNAPFNPKHPSMPITPAQIADACVEAAKAGASVAHIHVRDPKTGGGSRDPVLFKEVVDRVRSSGTDIVLNLTCGLGAFLLPDPEDESKALPESDVVPVAERVKHLEDCLPEIASLDITTGNQVEGKLEFVYLNTTRTLRAMARRFQELGIKPELEVFSPGDILFGKQLIEEGLIDGVPLFQMVLGVLWGAPASTETMIYQRNLIPANAQWAAFGIGRDQMPMMAQAALLGGNVRVGLEDNLYLSRGVFATNGQLVERARTVIEHLGMSVATPDEARDIMGLSRPA” the protein production was “not failed”. In the case of “MSRLFHQRGNVMPIHVITALPGGGKTAIMVEMLEAEAKIGARPLFAAGIDGLQPGLATVLDDPSQWNAKDAHGNYVVPDGSLVFVDEAWKWFGMKYGGSGMRQTTPDHVRALAEHRHRGLDFVWTTQQAHKQLYSFVHGLIGRHTFIKRRFGTRFLDVWEWDEMVENVNSASNREFSRHQVRTLPKHVYSLYKSAEIHT”, the protein production is reported as “failed”. With “MSRMMKMGTGTLRVILWFASILIWFSIFVPIEYLVNYFSGETTNYILHSDDFMMPIKTHVASTNAIASFPSGLYTTLMIIGYILMLVGVFITIQAVSAIVRHIQEQDYFSTENSQQMNRIVKGQIWILGSSLLMACANQLTVSWLYRISQFGLGWDNLLSAFVDLIIFALIAMIYTRAVNMKTESDLTI” the protein production was “failed”. In the case of “MSRNHLPFSAGELEALPLFRFVPLECIEGILEHSCVVSLERGERFEPAGPLGRTIHLILDGRLALYYDVRERDDTPLHLERGDIVGQSLVSGEPEVPCTLVAAEETRLMILEEDLIWSLAQASHAAACNLLGILLRGRGGSPQESFSGTVRDYALRNQAVVDPLTGFQSRRWLEGILSRQVDRFTANGRPLSLVMIDIDGFRAFNERHGRAGGDRALHDVAKTLRNSLRPGELVARYGGDTFAVLLPETEPSTAWMIADRLRQRLMRTVIDMGDGAMLPPLSISAGVAEATPGIDGPTIADNALAALDRAKAAGGNTVSR”, the protein production is reported as “failed”. For “MSRPRLELGTWGKITRTEVAEGKHRARARFRDFTGKTRQVEAYGASGAKAERQLLANLRSRVESAGDTISGNTTVSSLGKIWTGNLGKSDEHTEQTIERYESIVEKIIGPALGEYLIMEATVSRVDGFLRALADKTPGRAKTTKSVLKSMFDLAVRHDALRTNPVREVRLPTKRKKPVQALTIDEVGTLREGLRKWQAADGVKGPTRSTELLDVVDLMLGTGMRIGEVLALRWSDVDLGEHPRLTVSGTLVPIKEKGLRRQAHTKTASGFRVLTLPAFVVEVLLRRSVESIPTETNAVFPSGAGTWKWPNNYRRALRAALKEMENTSGITPHVFRKSVATLIDAEATLEAAAAVLGHSGTGVTSAHYVAKAATAPDMSSILDQFGGNRIQKDG”, the protein production was “failed”. With “MSRPTVSVIIPTHNRAKLLKRAIISVLNQTFEDFEIIVVDDASSDNTPNIIESIKDSRIRYIRLEKNSGAPTARNIGIKKARGKFIALLDDDDEWLPRKLEVQVKKFNELEKKFGVVYGGFYYVSQQNERIIGKRLPRFRGNVYGELLKENFIGSPTVLIRRECFKKAGLFDPKLPSSQDWDMWVRIARYYYFDYIVAKYYVHGHQISFNINEKYIPGREIFISKHKDIANNPKILSMHLTQMGLLSILGGNIEKGVKYLAQSITISPLNIDSYKKVIELTLDSRFLEYVKNILHANYLEHHHHHH” the protein production was “failed”. With “MSRRGLEREGGKPVSSDAKGLKRVDVRLKWDPSPWDRPPHHLDIIATTYAADAPHGRPVYVVQFDKRSPDGTINMSRHSRTGQGFGFVEEMTFELDRLSPSIARVIVGVAIHQDNGHKTFDDVSNTGVVVAEGYRELLTDGFERVAGATAATVAEFTRNASGAWEFREAVRGFDSDPVLFATEMGSAPRP” the protein production was “not failed”. With “MSRRRMSESLPPGVQVDPAAIEQLVGRPVDDLSHYRRALTHRSLLRVHPARTFRSNERLEFLGDALLDVFVGEVLYDRFPEKDEGALTRLRARLVSERPLATYARGLGLGPHLLMSENAAEGDGRDNPSILADAFEAFVGAVYLDLGHEAARGFVQDRVLAPVDLEDVATRDDNYKSQLLEHLQALGRPQPTYHVVEEKGPSHDKTFTVEVRVGDAAYERGTAGSKQDAEQQAARRTLDEMASDPPAS” the protein production was “failed”. For “MSRSFFAVLRDGKRYADKWPHHSVVAAMAESRIIPITRKAISWTPGIAVLNAALTWQFMPQEQLAPGLMLSLIMLSLPLQGLYWLGWRSRQPLKPMLRNWYKELRDKLRKQGVECQPQGEKGPEYMDLAIILRKALETLPPEEH”, the protein production was “failed”. For “MSRSSSPPLAPARRTRGGHACLALAMVLAGSTVPASKLIAAEVAPFTATAIRLGLALPVFLLLMRATGARWPRPGRRDACLLALQAAAGSVGYTALLIAGLRLTSAADAAVVIGTLPAVTALLAMAVLRERPPPRTLAAIALAAAGVLVLVGGRTDDAPGSLAGNLLVLGAVVCEGLFILLSKRLRAPIAPLPLSAALTAIGAVLAGAAALAEAPWHAAFGSPALAVLAYYAWLPTVAGFVLWYAGLARASASEAALFTALAPVAAVLLAALALGETVGPRQAAGIGCVLAAVLALRPGGDKQSQKENIK”, the protein production was “failed”. With “MSRTLVLFDIDGTLLKVESMNRRVLADALIEVYGTEGSTGSHDFSGKMDGAIIYEVLSNVGLERAEIADKFDKAKETYIALFRERARREDITLLEGVRELLDALSSRSDVLLGLLTGNFEASGRHKLKLPGIDHYFPFGAFADDALDRNELPHIALERARRMTGANYSPSQIVIIGDTEHDIRCARELDARSIAVATGNFTMEELARHKPGTLFKNFAETDEVLASILTPKHS” the protein production was “not failed”. In the case of “MSRTTPYRLDDQIGFILRQANQRYAALFANGIGNGLTPTQWAALVRLGETGPCPQNQLGRLTAMDAATIKGVVERLDKRGLIQRSADPDDGRRLLVSLSPAGRAELEAGLAAAREINRQALAPLSLQEQETLRGLLARLI”, the protein production is reported as “not failed”. With “MSRVQMDTEEVREFVGHLERFKELLREEVNSLSNHFHNLESWRDARRDKFSEVLDNLKSTFNEFDEAAQEQIAWLKERIRVLEEDY” the protein production was “not failed”.
